Target: DNA-PKcs;Ku70;Ku80 (Homo sapiens (HeLa cells);Homo …, UniProt P78527;P12956;P13010 1-4128;1-609;1-732, ||)

B1: 40N (nicked 40 bp DNA) (dsDNA)
DNA 1: GCATGCTCTACTGCTTCGATATCG
DNA 2: AAGCAGTAGAGCATGC
DNA 3: GCATGCTCTACTGCTTCGATATCG
DNA 4: AAGCAGTAGAGCATGC
modifications: none stated
B1: binds.

Source: publication PMC7897279
